In patent US20220153796A1 (IMMATICS BIOTECHNOLOGIES, published 2022):

These binders were tested against HLA-A*01 (human) (assay: UV peptide exchange ELISA).

peptide exchange yield [%] | Binder
> 75 | VTDGSLYEGVAY
> 75 | NTDNNLAVY
> 75 | ASEQQALHTVQY
> 75 | ECDMAFHIY
10 to 20 | WMFFVINY
> 75 | VVDSVGGYLY
10 to 20 | VVADTKMIEY
> 75 | ATDLVVLDRY

These binders were tested against HLA-A*02 (human) (assay: UV peptide exchange ELISA).

peptide exchange yield [%] | Binder
20 to 50 | LMAFFLAVV
10 to 20 | ALCLLLHLL

The binders below were run against HLA-A*03 (human) (assay: UV peptide exchange ELISA).
Text: (§1) Candidate peptides for T cell based therapies according to the present invention were further tested for their MHC binding capacity (affinity). The individual peptide-MHC complexes were produced by UV-ligand exchange, where a UV-sensitive peptide is cleaved upon UV-irradiation, and exchanged with the peptide of interest as analyzed. Only peptide candidates that can effectively bind and stabilize the peptide-receptive MHC molecules prevent dissociation of the MHC complexes. To determine the yield of the exchange reaction, an ELISA was performed based on the detection of the light chain (β2m) of stabilized MHC complexes. The assay was performed as generally described in Rodenko et al. (Rodenko et al., 2006).
(§2) 96 well MAXISorp plates (NUNC) were coated over night with 2 ug/ml streptavidin in PBS at room temperature, washed 4× and blocked for 1 h at 37° C. in 2% BSA containing blocking buffer. […] Peptide-MHC monomers of the UV-exchange reaction were diluted 100-fold in blocking buffer. Samples were incubated for 1 h at 37° C., washed four times, incubated with 2 ug/ml HRP conjugated anti-β2m for 1h at 37° C., washed again and detected with TMB solution that is stopped with […]. Absorption was measured at 450 nm.

peptide exchange yield [%] | Binder
50 to 75 | KLYAWELAF
50 to 75 | KTLVAELLILK

The binders below were run against HLA-B*07 (human) (assay: UV peptide exchange ELISA).
Text: as §1, §2

peptide exchange yield [%] | Binder
10 to 20 | SAYPQRLEI
